Laboratory results from patent US20140289906A1, “Compositions Having Dicamba Decarboxylase Activity and Methods of Use” (priority 2013, published 2014).

Test: 14C assay: 14CO2 capture from [14C]-carboxyl-labeled dicamba with IPTG-induced recombinant E. coli cells
Details: for Dicamba Decarboxylase Activity: IPTG-induced recombinant E. coli cells, 14CO2 from [14C]-carboxyl-labeled dicamba; for Enzymatic Detection level: dicamba decarboxylation activity

Row | Molecule | Dicamba Decarboxylase Activity | Enzymatic Detection level
1 | 80 (protein, listed as Cordyceps militaris) MAAASTPVVVDIHTHMYPPSYIAMLEKRQTIPLVRTFPQADEPRLILLSSELAALDAALADPAAKLPGRPLSTHFASLAQKMHFMDTNGIRVSVISLANPWFDFLAPDEAPGIADAVNAEFSDMCAQHVGRLFFFAALPLSAPVDAVKASIERVKNLKYCRGIILGTSGLGKGLDDPHLLPVFEAVADAKLLVFLHPHYGLPNEVYGPRSEEYGHVLPLALGFPMETTIAVARMYMAGVFDHVRNLQMLLAHSGGTLPFLAGRIESCIVHDGHLVKTGKVPKDRRTIWTVLKEQIYLDAVIYSEVGLQAAIASSGADRLMFGTDHPFFPPIEEDVQGPWDSSRLNAQAVIKAVGEGSSDAAAVMGLNAVRVLSLKAE | Low | Low
2 | 76 (protein, listed as Polymorphum gilvum) MAKKIDIFNHIWPEPFFKALIAHIGEMTDITMRSGAVPMMTNLDRRFEVMDMFGPDYMQVLSLASPPLEKLADPAKALELSRIGSDSLAELCQRYPERFPAFIGTAPLSNPAAVVGECRRAIEDLGAAGMQIFTNVAGKPLDLAEFEPFFEYMASAGKPVWLHPARGEAFADYQTEKRSEYEIWWTFGWPYETSAAMARLVFSRMFDKYPGLKVITHHAGGMVPFFEGRVGPGWDQMGARTTDRDLAAVRKALKRPHLDYFKEFYADTASFGSRKAIEHAIEFFGEDRVLFASDAPFDPEGGPMYIRETMRCIDSLDLTDAQRRKIYHGNATALLGLSL | No | No
3 | 78 (protein, listed as Marinobacter adhaerens) MALIDLHAHAPHPDYYDQHPHWGPAFELQSDGDIKLRVGHWVLSLGAPERKQALREAHARGETLDVQEYMAKWRDPEHRLASMDAAGQNAQVLSVPSHCYMYWAEPEFGVPFAKKVNDSLAEYCSAAPDRLMFWAHAPLNVPKEAAKEIRRACTELGAKGLVAGGSNFGGLEFDSPEMDPVWEALCDLDLPMFVHGYNQSVTWGEEANTDRYETTAIVGMNYDESKCFWYMINGGVFDRFPNLKVYITHGGGFVPYQLGRMAQTNPNLDTYHNKKPFLEYLKNFYFDVELHEVPMRQAMVEVIGADRVLYGSNFGGSDAVRHDLTDDLKLSQEDLDKIRWKNACDLLHLDPNKLGKVRG | Low | Low
4 | 72 (protein, Cupriavidus necator) MADCPCCVSPKRRRLLGSVSAIAAGMMAGLPALAAQPSTAAAGTGKPLSIDIHAHYYSESFLGLLGGEGKQFGGHFFRNDDSFTFQTPAGGLGPLPMKFIDVEQRVRDMDNSGVDVQAISLSVPMVYWADRTLNAKLARAWNTAASDVHRKHPTRFVVLATLPMLNANDAIDELEFAAGLPGVRGIYMGTNINNRDLDDPLFSPIFKRIEQLNLPIFLHPQQTVGGARLADFYLSNLLGNPFDTAIAASHLILGGVLDKYPALHFSLPHAGGALPILVGRIDAGWSMRSETKRVAQKPSSYLRRFSYDTISHSGPTLDFLIRNIGADRLVLGSDYCFDMGYEQPVRFLDRLALPDDQKRMVVGGNAARLLNL | Low | Low
5 | 82 (protein, listed as Rhodopseudomonas palustris) MAQNETPVIAIEEHYWDPEMVARFPAGENASPFSTLLTELGDVRLRAMDEAGIDVQVLSHGAPAAQKLPPDVAPELTRRVNDRLAEACARFPNRFAAFAALPTPAPEAAARELERCVRDLGFKGAMIHGLTNGLFIDDKRFWPIFEVAEKLDVPIYLHPSVPHADVTRYYYDDYAREFPTVIRPAWGFTVETATQAIRLILSRALESYPRLQIILGHLGETLPFLLWRINQALARPGQTPLDFRKQFCDHFHVTTSGFFSTPALICTMLELGIDRIMFAVDYPYVVNRDGTDWVQQLQISPDDKRKLVGGNARRLLKL | Low | Low
6 | 84 (protein, listed as Mycobacterium rhodesiae) MASLIALEEHYAWDPASEGNVVATWLRANNGVAYDRLYDRGPLRIEQMDAAGIDFQILSLFDPGVQDEVDAVRAVDLARRANDDLAESVRANPSRFGGFATLATQQPDAAVAEFDRAVTELGLVGGLINGHCQGRYLDDPAYEALFSRAEALGAPIYLHPTTPHPAVMDAWFAPYVGDGLHLASWGFAAETGTHVLRLIYSGLFDKFPRLQMIIGHLGEMLPFAAYRIDRYYGLGGGGTGHTLQHLPSDYLRNNFHVTTSGNFCSPALDCTLDVMGADRVMFSVDYPMDDNQTGADFLASYPMDDTNRRKVASENALRLFGDRIPAALRN | Low | Low
7 | 75 (protein, listed as Ectocarpus siliculosus) MAKIDSYTHFACPAFMDHLEAESGHPMVFRGLFSSIPELSDIDLRIRYMDEHGIDVHCLVPLPWLECEPGLHADEGKALEACRIANDEMARVVARFPDRLIGVALIPTTTEQAMIQETTRAVKELGMAGVALFVGPTAKPPDMACFEGLYRTCEELGAVVWMHPCRPQSYADYDSYKGEGSKHQIWNTFGWIYDTSVAMVHIALAGVFRRYPGLKVVTHHHGAMVPFFTARFDTQRRNFQEVEGDDLLEDLRLFYCDTATFGESAANIQQAIDFFGKSQVLFGTDTPMDMGTRGMFTRTTIASVEALGAAPEDKESFYAGNVLDMLGERFAGISGARGAVAARPKGDSTRIAASL | Low | Low
8 | 74 (protein, listed as Ramlibacter tataouinensis) MATVIDVHTHMFTTKWLELLKKEGGQYNIQTRPDGQQEIFRGNTPVVIPQKGHFDWKLRIQHMDQAGIDVSVVSLTCPNVYWGGEDVSVRAAREANDNVAQAQTAYPDRIRWFASLPWEYMATVIDVHTHMFTTKWLELLKKEGGQYNIQTRPDGQQEIFRGNTPVVIPQKGHFDWKLRIQHMDQAGIDVSVVSLTCPNVYWGGEDVSVRAAREANDNVAQAQTAYPDRIRWFASLPWEYPQRAVEELERSCAQGAAGVMVLANVAGRSLTDPLFAPVWAEIDRRALPVLVHPTDPPGVDLMDMTKFDLSWSVGFMFDTTLAITRMIFEGFFDRYPNLRIIASHGGGTLPYLVGRFEKGDEVELASRRQMKRKPTDYLRHIHYDCITYNLGALQYLISVVGAGQVMFGTDWPHWVHDTRGAFANTAQLPQEQTRAVRGANAQRLFKL | Low | Low
9 | 77 (protein, Burkholderia xenovorans) MALIDLHAHAPHPGYYNQHPHWGPFFERHEDGDVKLRVGDWILTLGSPERKALVRAGKGPTVEEYQARWADPKVRLAGMDAAGQNAQVVSVPSHCYMYWAEKEFSVPFATKVNDTFAEYCSAAPDRLMFWAHAALNAPEQAALELRRACTELGAKGLVAGGANFGGLEFDSPELDPVWKVLCDLDLPMFIHGYNQSVTWGKKANDDRYETTAIVGMQYDETRCFWNLVCGGVLDRFPGLKVYITHGGGYVPYQLGRLAQCNGNLDVAHNKKPVLEYLKNNFYFDVELHEVPMRQALIDIIGADRVLYGSNFGGSDAVRHDLTEGLRLSDDDLQKIRWKNACKLLHLDPAKIGEPAKKQAVSA | No | No
10 | 85 (protein, listed as Maritimibacter alkaliphilus) MAADRKPGLVSVEEGFMIPEVVAELSRIAGGVPSMKSGPIAGPFMDDLLDIGKGRVARMDADGVAVQILALAAPGVQKFDPDTALALSRLTNDRLAEAIAAHPARFGGLAAAPPQAAREGAKELDRAITTLGLNGLIVNSHTNDLYLDDPSFWPLLEAAEALDVPVYLHPREPAAGIEGGLMAMTGFTVGWAYAVETGTHLLRMIAAGVFDRFPRLRIVLGHLGEMIPFMLDRIDNRYPFEMGVTGAKPLPRKPSDYFRDHVTVATSGMNFNAPMRAAIEVLGADKVMFAADYPMERQDEEVAKFAALDLTPDERKRIGEDNARRVFGL | Low | Low
11 | 83 (protein, listed as Mycobacterium rhodesiae) MALIALEEHYAWSPVSAGNVVGSWLETHNVTAYQRLYDRGPLRLEQMDAAGIDFQILSLFDPGVQDDDDTARAVENARRANDDLAETVRAAPDRFGGFATLAPQDPDAAAAELERAVGELGLVGGLINGHTHGRYLDDPAYLGLFECAQRLGVPIYLHPTTPHPAVMDAWFAPYVKDGLHLASWGFAAETGTHALRLIYSGLFDTFPRLQMILGHLGEMLPYAAYRIDRYYGLGGGDDGGRLARLPSEYLRDNFHVTTSGNFNPVAFACALDVMGPDRLMFSVDYPMDDNVTGAEFLRNLEVDDDVRRKVAGENALQLFGDKIPRR | Low | Low
12 | 73 (protein, listed as Sphaerobacter thermophilus) MARIDAHAHAQPPEYLDALLASGRYESVRDAEGRIVVRERGSRFLTITPQMHHPEQRVAEMDEAGIDMQILSVTTPQVYFLQGQAAVDLARRCNDYLADIVRSYPTRFRALASVPLTADPDAAVREFVRCLDDLGMVGAIIGSNIDGRPIDDPAFDAFYAEADRRATTLFIHPMVPAGIEVMNPYALAPLVGFMFDTTLAVSRLIFSGFFERYPRVKVLVGHLGAAVPYLAGRLDIGWRSYSDCQGIPHPPTEYIRRLYLDTVSFHAPALRCALETVGPDRIVFGSDYPHVIGDVGGAIASIQQALPATTHDGVLGHTAAELFGVSA | Low | Low
13 | 6 (protein, Treponema brennaborense) MAEILSPEESIYYSKLSNDILAEGIKKNPTRFRGFAALPTPDPIQAAMELERCIKLGGFVGAIINGHINGHYLDEIQFDPILEAADALDVPLYIHPAVPPKAIIDTYYKMNDTYAQTVMVSGGWGWHIETGVHVLRLISSGVFDRHPNLKIVIGHLGEGLPFFMHRLNNAIGGNLKKSYSTYLKENIYYTISGFNDPDLFQFVLKKVGENNIMFSSDYPFNFPKREVELFNELNISEEVREKISFKNAERILKI | No | No
14 | 71 (protein, listed as Burkholderia dolosa) MARAGHRAARTRQSRPGDRTMTCSCCMSAGRRRVLGAFAALAGAPKGPRAASAAQPAAASKPTRGDATARNRHSRALLPGKASASWSATKASGSGGAFAWDDTTFTFRTPAGGLGPLPMKFIDVDARLRDMDASGVDVQALSLSVPMAYWGDRPFNAKLARAWNTAASRVHVRAPDRFVVLATLPMLDATDAIDELERASELPGVRGVYMGTNIDNRDLDDPRFAPVFARIEQLGLPVFLHPQQTVGGARLGDFYLSNLLGNPFDTAIAASHLILGGVLDRHPALHFTLPHAGGALPILVGRLDAGWTVRAETRRLAHQPSGYLRRFSYDTVSHSGPVLNFLIENVGIDRLVLGSDYCFDMGYEQPVRFLDRLDLTPDERAMVIGGNAGRLLRI | Low | Low
